PMC3655264 (2010)
Where no end group is shown, it is not given here. [ ]: non-standard residue; d: D form. The star is where a group is joined. MPB‑DPPE = 1,2-dipalmitoyl-sn-glycero-3-phosphoethanolamine-N-[4-(p-maleimidophenyl)butyramide], CCCCCCCCCCCCCCCC(=O)OC[C@H](COP(=O)(O)OCCNC(=O)CCCc1ccc(N2C(=O)CC(*)C2=O)cc1)OC(=O)CCCCCCCCCCCCCCC; pS = N[C@@H](COP(=O)(O)O)C(=O)O

What was measured:
μ2 5K>E Core [1] = experiment: SPR; liposomes with 10% PtdIns4,5P2 + 1% CD4P
[2] = molecular target: T1, μ2^PIP-Core (AP2 core with the μ2 mutations 5K>E and KRR>E combined) (UniProt P63010 1-592; P84092 1-236; P84092 237-435; P62743 1-142); experiment: SPR; liposomes with 10% PtdIns4,5P2 + 1% CD4P
[3] = molecular target: T2, AP2 core (recombinant; α trunk, β2 trunk, myc-tagged μ2, σ2) (UniProt P63010 1-592; P84092 1-236; P84092 237-435; P62743 1-142); experiment: SPR; liposomes with 10% PtdIns4,5P2 + 1% CD4P
μ2 KRR>E Core [4] = molecular target: T3, μ2 KRR>E Core (Rattus norvegicus (alpha2, mu2), Homo …); experiment: SPR; liposomes with 10% PtdIns4,5P2 + 1% CD4P
μ2 5K>E Core [5] = experiment: SPR; liposomes with 10% PtdIns4,5P2 + 1% TGN38
[6] = molecular target: α^PIP-Core (AP2 core with mutations in the PtdIns4,5P2-binding site on α) (UniProt P63010 1-592; P84092 1-236; P84092 237-435; P62743 1-142); experiment: SPR; liposomes with 10% PtdIns4,5P2 + 1% TGN38
[7] = molecular target: T1, μ2^PIP-Core (AP2 core with the μ2 …); experiment: SPR; liposomes with 10% PtdIns4,5P2 + 1% TGN38
[8] = molecular target: T2, AP2 core (recombinant; α trunk, β2 …); experiment: SPR; liposomes with 10% PtdIns4,5P2 + 1% TGN38
[9] = molecular target: β2^PIP-Core (AP2 core with β2 Lys5, Lys12, Lys26, Lys27, Lys29, Lys36 mutated to glutamate) (UniProt P63010 1-592; P84092 1-236; P84092 237-435; P62743 1-142, Lys5 to glutamate | Lys12 to glutamate | Lys26 to glutamate | Lys27 to …); experiment: SPR; liposomes with 10% PtdIns4,5P2 + 1% TGN38
μ2 KRR>E Core [10] = molecular target: T3, μ2 KRR>E Core; experiment: SPR; liposomes with 10% PtdIns4,5P2 + 1% TGN38

T3 sequence (chain, as listed by the source, chain 1 of 4): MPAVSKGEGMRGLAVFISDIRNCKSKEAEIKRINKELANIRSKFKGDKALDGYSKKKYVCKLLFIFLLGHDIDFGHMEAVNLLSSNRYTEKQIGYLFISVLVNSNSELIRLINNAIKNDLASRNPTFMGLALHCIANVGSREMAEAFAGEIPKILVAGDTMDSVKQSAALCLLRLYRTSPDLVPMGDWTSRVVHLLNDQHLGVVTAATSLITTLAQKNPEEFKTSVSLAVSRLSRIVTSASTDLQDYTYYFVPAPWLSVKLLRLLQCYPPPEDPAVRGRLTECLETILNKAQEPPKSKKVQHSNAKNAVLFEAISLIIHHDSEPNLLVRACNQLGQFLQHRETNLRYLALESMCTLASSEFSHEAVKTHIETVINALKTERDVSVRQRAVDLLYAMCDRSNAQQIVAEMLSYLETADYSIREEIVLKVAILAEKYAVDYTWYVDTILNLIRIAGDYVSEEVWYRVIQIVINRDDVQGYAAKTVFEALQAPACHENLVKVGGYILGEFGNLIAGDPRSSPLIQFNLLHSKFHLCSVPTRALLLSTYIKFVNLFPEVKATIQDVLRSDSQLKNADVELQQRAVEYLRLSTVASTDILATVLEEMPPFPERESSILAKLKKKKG
T3 sequence (chain, as listed by the source, chain 2 of 4): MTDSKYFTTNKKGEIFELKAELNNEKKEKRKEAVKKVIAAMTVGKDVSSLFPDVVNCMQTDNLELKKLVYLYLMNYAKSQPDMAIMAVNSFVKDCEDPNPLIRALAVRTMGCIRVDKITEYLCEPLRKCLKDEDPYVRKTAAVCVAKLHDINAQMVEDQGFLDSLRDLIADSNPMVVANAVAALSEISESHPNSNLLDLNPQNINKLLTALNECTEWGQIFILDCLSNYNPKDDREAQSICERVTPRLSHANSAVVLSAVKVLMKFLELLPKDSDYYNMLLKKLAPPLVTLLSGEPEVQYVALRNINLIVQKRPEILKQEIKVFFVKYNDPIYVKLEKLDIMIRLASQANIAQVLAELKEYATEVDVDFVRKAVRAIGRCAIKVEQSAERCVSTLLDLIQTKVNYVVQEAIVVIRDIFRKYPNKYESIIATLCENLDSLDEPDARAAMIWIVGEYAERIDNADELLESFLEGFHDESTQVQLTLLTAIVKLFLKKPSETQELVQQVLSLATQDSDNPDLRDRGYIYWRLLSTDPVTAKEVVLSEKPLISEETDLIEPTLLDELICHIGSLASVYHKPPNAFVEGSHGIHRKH
T3 sequence (chain, as listed by the source, chain 3 of 4): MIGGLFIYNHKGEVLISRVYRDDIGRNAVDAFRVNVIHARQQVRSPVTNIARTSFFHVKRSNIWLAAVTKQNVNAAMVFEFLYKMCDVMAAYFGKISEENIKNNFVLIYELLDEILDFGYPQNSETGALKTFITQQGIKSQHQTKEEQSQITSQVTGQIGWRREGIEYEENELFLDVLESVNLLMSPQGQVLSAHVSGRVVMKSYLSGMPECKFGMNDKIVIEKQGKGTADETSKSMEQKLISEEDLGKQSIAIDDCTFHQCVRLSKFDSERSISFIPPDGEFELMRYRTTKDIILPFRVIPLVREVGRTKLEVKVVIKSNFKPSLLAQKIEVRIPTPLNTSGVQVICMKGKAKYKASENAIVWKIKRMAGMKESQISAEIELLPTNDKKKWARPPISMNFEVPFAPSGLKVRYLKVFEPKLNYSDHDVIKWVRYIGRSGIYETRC
T3 sequence (chain, as listed by the source, chain 4 of 4): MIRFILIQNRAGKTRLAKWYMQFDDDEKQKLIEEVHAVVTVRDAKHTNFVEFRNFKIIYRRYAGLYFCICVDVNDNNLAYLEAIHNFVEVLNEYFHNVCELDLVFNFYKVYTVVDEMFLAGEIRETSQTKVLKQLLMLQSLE
T2 sequence (chain, as listed by the source, chain 1 of 4): as the sequence (chain, as listed by the source, chain 1 of 4) above
T2 sequence (P63010 1-592, chain 2 of 4): as the sequence (chain, as listed by the source, chain 2 of 4) above
T2 sequence (P84092 other isoform, or with tags, fused parts or gaps, chain 3 of 4): as the sequence (chain, as listed by the source, chain 3 of 4) above, with E167K, E169R, E170R counted along it
T2 sequence (P62743 whole entry, chain 4 of 4): as the sequence (chain, as listed by the source, chain 4 of 4) above
β2^PIP-Core (AP2 core with β2 Lys5, Lys12, Lys26, Lys27, Lys29, Lys36 mutated to glutamate), sequence (P18484 other isoform, or with tags, fused parts or gaps with the stated changes, chain 1 of 4): as the sequence (chain, as listed by the source, chain 1 of 4) above
β2^PIP-Core (AP2 core with β2 Lys5, Lys12, Lys26, Lys27, Lys29, Lys36 mutated to glutamate), sequence (P63010 other isoform, or with tags, fused parts or gaps with the stated changes, chain 2 of 4): as the sequence (chain, as listed by the source, chain 2 of 4) above, with K5E, K12E, K26E, K27E, K29E, K36E counted along it
β2^PIP-Core (AP2 core with β2 Lys5, Lys12, Lys26, Lys27, Lys29, Lys36 mutated to glutamate), sequence (Q96CW1 other isoform, or with tags, fused parts or gaps with the stated changes, chain 3 of 4, further chain): as the sequence (chain, as listed by the source, chain 3 of 4) above, with E167K, E169R, E170R counted along it
β2^PIP-Core (AP2 core with β2 Lys5, Lys12, Lys26, Lys27, Lys29, Lys36 mutated to glutamate), sequence (B2R4Z4 whole entry, stated change not applied, chain 4 of 4, further chain): as the sequence (chain, as listed by the source, chain 4 of 4) above

Kd (μ2 5K>E Core [1]) [nM] | Kd [2] [nM] | Kd [3] [nM] | Kd (μ2 KRR>E Core [4]) [nM] | Kd (μ2 5K>E Core [5]) [nM] | Kd [6] [nM] | Kd [7] [nM] | Kd [8] [nM] | Kd [9] [nM] | Kd (μ2 KRR>E Core [10]) [nM] | Binder
950 | 2500 | 820 | 850 | – | – | – | – | – | – | C(1,2‑dipalmitoyl‑sn‑glycero‑3‑phosphoethanolamine‑N‑(4-(p-maleimidophenyl)butyramide))HRRRQAERM[pS]QIKRLLSEK
– | – | – | – | 520 | > 30000 | 6200 | 320 | 20000 | 330 | C(MPB‑DPPE)KVTRRPKASDYQRL [lipid-linked TGN38 sorting motif peptide (CKVTRRPKASDYQRL) displayed in liposomes]
